Measured values: article PMC4429956

Key:
[1] = target: fluorescent H3K4me3 peptide; test: fluorescence polarisation; increasing concentrations of TAF3 PHD finger with fluorescent H3K4me3 peptide, no PI; apparent KD
[2] = target: fluorescent H3K4me3 peptide; test: fluorescence polarisation; increasing concentrations of TAF3 PHD finger with fluorescent H3K4me3 peptide, with a 5-fold molar excess of PI5P; apparent KD

Kd [1]: 1000 nM
Kd [2]: 3500 nM
B1: GST-TAF3 PHD finger, wild type (domain or fragment)
chain: IWICPGCNKPDDGSPMIGCDDCDDWYHWPCVGIMTAPPEEMQWFCPKCANKKKDKKHKKRKHRAH
modifications: not checked
